According to US20240417482A1 (CONCEPT TO MEDICINE BIOTECH, published 2024):
Substitutions are numbered along the chain they refer to. Where two headings read alike, the source gives them in different places. Values belong to the molecule of their own block, whether it stands above or below them.

What was measured:
human 4-1BB-His protein [1] = biological target: T1, human 4-1BB-His protein (human, UniProt Q07011 24-186); assay: ELISA, plate coated with human 4-1BB-His at 0.5 ug/ml, anti-human IgG-HRP detection, OD450 (panel Human 4-1BB ELISA)
T1 construct: Recombinant His-tagged protein; also called human 4-1BB-his tag; recombinant 4-1BB protein; not shown: His tag
Target sequence in this assay (Q07011 24-186 limits assumed): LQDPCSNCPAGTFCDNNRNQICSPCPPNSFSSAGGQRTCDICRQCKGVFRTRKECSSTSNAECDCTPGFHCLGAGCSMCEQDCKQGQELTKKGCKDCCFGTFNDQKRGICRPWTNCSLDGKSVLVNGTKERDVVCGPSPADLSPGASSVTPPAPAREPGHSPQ

[2] = biological target: human 4-1BB expressed on cells (human) (UniProt Q07011); assay: flow cytometry on HEK293-4-1BB cells, PE anti-human IgG, MFI
Sequence of human 4-1BB expressed on cells (human) (Q07011 24-255): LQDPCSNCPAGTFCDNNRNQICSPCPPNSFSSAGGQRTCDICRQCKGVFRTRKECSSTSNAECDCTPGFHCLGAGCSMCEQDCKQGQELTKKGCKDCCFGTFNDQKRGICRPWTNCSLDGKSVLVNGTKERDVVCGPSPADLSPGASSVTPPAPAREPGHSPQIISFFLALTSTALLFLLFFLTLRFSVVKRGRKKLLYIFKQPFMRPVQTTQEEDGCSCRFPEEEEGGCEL

human 4-1BB-His protein [3] = biological target: T1, human 4-1BB-His protein; assay: SPR, Biacore T200, antibody captured on Protein A chip, human 4-1BB-His as analyte
Experimental: The binding of the humanized antibodies to recombinant human 4-1BB protein (human 4-1BB-his tag) was tested by Biacore using a capture method. […] A serial dilution of human 4-1BB-his tag protein was injected over captured antibody for 30 s at a flow rate of 10 μl/min. The antigen was allowed to dissociate for 360 s. All the experiments were carried out on a Biacore T200.

human OX40 protein = biological target: T2, human OX40 protein (human, UniProt P43489 29-214, limits assumed); assay: ELISA, plate coated with human OX40 0.5 µg/ml
T2 construct: Coated protein in ELISA
T2 sequence (looked up): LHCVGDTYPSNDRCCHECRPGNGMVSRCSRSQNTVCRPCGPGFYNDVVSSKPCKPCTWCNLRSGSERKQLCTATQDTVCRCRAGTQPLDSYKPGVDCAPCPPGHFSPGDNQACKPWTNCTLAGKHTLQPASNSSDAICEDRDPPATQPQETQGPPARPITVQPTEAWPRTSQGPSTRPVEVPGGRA
Experimental: (§1) Briefly, microtiter plates were coated with human CD40 protein or human OX40 protein at 0.5 μg/ml in PBS, 100 μl/well at 4° C. overnight, then blocked with 150 μl/well of 1% BSA. […] The plates were washed with PBS/Tween and then incubated with Anti-Human IgG (H&L) (GOAT) Antibody Peroxidase Conjugated for 30 mins at 37° C. After washing, the plates were developed with TMB substrate and analyzed by spectrophotometer at OD 450 nm.

human 4-1BB-His protein [4] = biological target: T1, human 4-1BB-His protein; assay: SPR, Biacore T200, antibody captured on Protein A chip, human 4-1BB-His as analyte; remark: listed apart in the source
Experimental: A serial dilution of human 4-1BB-his tag protein was injected over captured antibody for 30 s at a flow rate of 30 μl/min. The antigen was allowed to dissociate for 360 s. All the experiments were carried out on a Biacore T200. Data analysis was carried out using the Biacore T200 evaluation software.

human CD40 protein = biological target: T3, human CD40 protein (human, UniProt P25942 21-193); assay: ELISA, plate coated with human CD40 0.5 µg/ml
T3 construct: Coated protein in ELISA
T3 sequence (P25942 21-193 limits assumed): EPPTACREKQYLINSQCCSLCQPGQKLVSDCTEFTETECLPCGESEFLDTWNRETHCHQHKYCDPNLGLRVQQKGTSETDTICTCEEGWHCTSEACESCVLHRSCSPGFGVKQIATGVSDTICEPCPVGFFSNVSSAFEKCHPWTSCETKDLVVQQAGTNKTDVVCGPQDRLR
Experimental: as §1

human 4-1BB-His protein [5] = biological target: T1, human 4-1BB-His protein; assay: ELISA, plate coated with human 4-1BB-His, anti-human IgG-HRP
Experimental: as §1, with “4-1BB-His” for “CD40 protein or human OX40”

[6] = biological target: T4, cynomolgus 4-1BB-His protein (cynomolgus, UniProt A9YYE7 24-186); assay: ELISA, plate coated with cynomolgus 4-1BB-His, anti-human IgG-HRP
T4 construct: Recombinant His-tagged protein; also called cyno 4-1BB antigen; not shown: His tag
T4 sequence: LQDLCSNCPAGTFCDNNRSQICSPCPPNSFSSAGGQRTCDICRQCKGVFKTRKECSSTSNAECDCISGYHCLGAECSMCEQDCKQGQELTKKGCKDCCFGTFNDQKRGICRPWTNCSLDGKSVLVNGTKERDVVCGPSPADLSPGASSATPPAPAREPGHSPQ
Experimental: as §1, with “Microtiter” for “Briefly, microtiter”, “cynomolgus 4-1BB-His” for “human CD40 protein or human OX40”

mouse 4-1BB-His protein [7] = biological target: T5, mouse 4-1BB-His protein (mouse, UniProt P20334 24-187); assay: ELISA, plate coated with mouse 4-1BB-His 0.5 µg/ml
T5 construct: Recombinant His-tagged protein; also called mouse 4-1BB antigen; not shown: His tag
T5 sequence (looked up): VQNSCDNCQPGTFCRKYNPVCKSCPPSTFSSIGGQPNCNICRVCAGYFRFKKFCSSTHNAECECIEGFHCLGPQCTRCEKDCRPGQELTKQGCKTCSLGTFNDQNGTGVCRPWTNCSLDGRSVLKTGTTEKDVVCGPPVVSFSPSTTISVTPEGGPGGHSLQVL
Experimental: as §1, with “Microtiter” for “Briefly, microtiter”, “mouse 4-1BB-His” for “human CD40 protein or human OX40”

mouse 4-1BB-His protein [8] = biological target: T5, mouse 4-1BB-His protein; assay: ELISA, plate coated with mouse 4-1BB-His, anti-human IgG-HRP
Experimental: as §1, with “Microtiter” for “Briefly, microtiter”, “mouse 4-1BB-His” for “human CD40 protein or human OX40”

B1: B31-V3 humanized antibody (VHH)
VHH: QVQLVESGGGLVQPGGSLRLSCAASGDIFSIMFWYRQAPGKQREYVAHITSNGRTNYADSVTGRFTISRDNNKNTLYLQMNSLRAEDTAVYYCAADDATNTRTYWGQGTLVTVSS
notes: Humanized VHH captured on a Protein A chip; also called B31 VHH-V3
Kd (human 4-1BB-His protein [3]): 13.6 nM
koff (human 4-1BB-His protein [3]): 0.00716 s⁻¹
kon (human 4-1BB-His protein [3]): 526000 M⁻¹ s⁻¹

B2: B31-V2 humanized antibody (VHH)
VHH: B1 VHH with A23S, A47S, N72S
notes: Humanized VHH expressed in 293F cells and captured on a Protein A chip; also called B31 VHH-V2
Kd (human 4-1BB-His protein [3]): 13.1 nM
koff (human 4-1BB-His protein [3]): 0.0068 s⁻¹
kon (human 4-1BB-His protein [3]): 517000 M⁻¹ s⁻¹

B3: B31-V4 humanized antibody (VHH)
VHH: B1 VHH with N72S, L76M, N81D
notes: Humanized VHH captured on a Protein A chip; also called B31 VHH-V4
Kd (human 4-1BB-His protein [3]): 4.74 nM
koff (human 4-1BB-His protein [3]): 0.00545 s⁻¹
kon (human 4-1BB-His protein [3]): 1.15e+06 M⁻¹ s⁻¹

B4: B31 chimeric mAb (VHH)
VHH: QVQLVESGGGLVQAGGSLRLSCAASGDIFSIMFWYRQPQGKQREYVAHITSNGRTNYADSVTGRFTISRGNNDNTMYLQMDNLKPQDTAVYYCAADDATNTRTYWGQGTQVTVSS
notes: Alpaca VHH tested as 'chimeric mAb' expressed in 293F cells, purified by protein G, detected with anti-human IgG and captured on Protein A; also called B31 chimeric antibody
binding result (human OX40 protein): no binding
Kd (human 4-1BB-His protein [4]): 3.16 nM
koff (human 4-1BB-His protein [4]): 0.0048 s⁻¹
kon (human 4-1BB-His protein [4]): 1.52e+06 M⁻¹ s⁻¹
binding result (human CD40 protein): no binding
EC50 (human 4-1BB-His protein [5]): 2.42 ng/mL
EC50 [6]: 4.06 ng/mL
binding result (mouse 4-1BB-His protein [7]): no binding
EC50 (read off the curve) [2]: 3 nM

B7: B164 chimeric mAb (VHH)
VHH: EVQLVESGGGLVQAGGSLRLSCAASGSIFSYMFWYRQPQGKQREYVAHITSGGRTNYADSVTGRFTISRGNNDNTMYLQMNNLKPEDTAVYYCAADDAVYTDRTYWGQGTQVTVSS
notes: Alpaca VHH tested as 'chimeric mAb'
binding result (human OX40 protein): no binding
Kd (human 4-1BB-His protein [4]): 0.526 nM
koff (human 4-1BB-His protein [4]): 0.000546 s⁻¹
kon (human 4-1BB-His protein [4]): 1.04e+06 M⁻¹ s⁻¹
binding result (human CD40 protein): no binding
EC50 (human 4-1BB-His protein [5]): 5.2 ng/mL
EC50 [6]: 4.81 ng/mL
binding result (mouse 4-1BB-His protein [7]): no binding

B8: B16-V2 humanized antibody (VHH)
VHH: EVQLVESGGGLVQPGGSLRLSCAASGFTFSYYAIGWFRQAPGKEREGVSCISSSDGSTYYADSVKGRFTISRDNSKNTLYLQMNSLRAEDTAVYYCATDTTTRCPIWSYYVESDYWGQGTLVTVSS
notes: Humanized VHH; also called B16 VHH-V2
Kd (human 4-1BB-His protein [3]): 1930 nM
koff (human 4-1BB-His protein [3]): 0.0898 s⁻¹
kon (human 4-1BB-His protein [3]): 46500 M⁻¹ s⁻¹

B9: B16 chimeric mAb (VHH)
VHH: B8 VHH with E1Q, F29L, S30D, S75A, L79V, R87K, A88P, L121Q
notes: as for B7
binding result (human OX40 protein): no binding
Kd (human 4-1BB-His protein [4]): 21.5 nM
koff (human 4-1BB-His protein [4]): 0.00739 s⁻¹
kon (human 4-1BB-His protein [4]): 343000 M⁻¹ s⁻¹
binding result (human CD40 protein): no binding
EC50 (human 4-1BB-His protein [5]): 10.6 ng/mL
EC50 (mouse 4-1BB-His protein [8]): 16.3 ng/mL
EC50 [6]: 19.5 ng/mL

B10: B210-V3 humanized antibody (VHH)
VHH: B8 VHH with F27L, D55G, G56R, Y59N, Y109N
notes: Humanized VHH; also called B210 VHH-V3
Kd (human 4-1BB-His protein [3]): 2560 nM
koff (human 4-1BB-His protein [3]): 0.0408 s⁻¹
kon (human 4-1BB-His protein [3]): 15900 M⁻¹ s⁻¹

B12: B210-V2 humanized antibody (VHH)
VHH: B8 VHH with D55G, G56R, Y59N, Y109N
notes: Humanized VHH; also called B210 VHH-V2
Kd (human 4-1BB-His protein [3]): 765 nM
koff (human 4-1BB-His protein [3]): 0.041 s⁻¹
kon (human 4-1BB-His protein [3]): 53700 M⁻¹ s⁻¹

Second part, the molecule after the results:

EC50 (read off the curve) (human 4-1BB-His protein [1]): 10 ng/mL
EC50 (read off the curve) [2]: 2 nM
Molecule: Urelumab (antibody)

Kd (human 4-1BB-His protein [3]): 6.58 nM
koff (human 4-1BB-His protein [3]): 0.00156 s⁻¹
kon (human 4-1BB-His protein [3]): 237000 M⁻¹ s⁻¹
B5: B31-V6 humanized antibody (VHH)
VHH: B1 VHH with A23S, N72S, A95R
notes: Humanized VHH captured on a Protein A chip; also called B31 VHH-V6

Kd (human 4-1BB-His protein [3]): 4.97 nM
koff (human 4-1BB-His protein [3]): 0.00646 s⁻¹
kon (human 4-1BB-His protein [3]): 1.3e+06 M⁻¹ s⁻¹
B6: B31-V5 humanized antibody (VHH)
VHH: B1 VHH with A38P, P39Q, N81D
notes: Humanized VHH captured on a Protein A chip; also called B31 VHH-V5

binding result (human OX40 protein): no binding
Kd (human 4-1BB-His protein [4]): 90.4 nM
koff (human 4-1BB-His protein [4]): 0.00352 s⁻¹
kon (human 4-1BB-His protein [4]): 38900 M⁻¹ s⁻¹
binding result (human CD40 protein): no binding
EC50 (human 4-1BB-His protein [5]): 2.51 ng/mL
EC50 (mouse 4-1BB-His protein [8]): 402 ng/mL
EC50 [6]: 3.91 ng/mL
B11: B210 chimeric mAb (VHH)
VHH: EVQLVESGGGLVQPGGSLRLSCAASGLSLDYYAIGWFRQAPGKEREGVSCISSSGRSTNYADSVKGRFTISRDNAKNTVYLQMNSLKPEDTADYYCATDTTTRCPIWSNYVESDYWGQGTQVTVSS
notes: as for B7

binding result (human OX40 protein): no binding
Kd (human 4-1BB-His protein [4]): 21 nM
koff (human 4-1BB-His protein [4]): 0.00818 s⁻¹
kon (human 4-1BB-His protein [4]): 390000 M⁻¹ s⁻¹
binding result (human CD40 protein): no binding
EC50 (human 4-1BB-His protein [5]): 2.06 ng/mL
EC50 (mouse 4-1BB-His protein [8]): 4.42 ng/mL
EC50 [6]: 3.54 ng/mL
EC50 (read off the curve) [2]: 3 nM
B13: B125 chimeric mAb (VHH)
VHH: B8 VHH with E1Q, T28A, Y31D, S75A, L79V, R87K, A88P, L121Q
notes: as for B7

Kd (human 4-1BB-His protein [3]): 3070 nM
koff (human 4-1BB-His protein [3]): 0.0266 s⁻¹
kon (human 4-1BB-His protein [3]): 8670 M⁻¹ s⁻¹
B14: B125-V2 humanized antibody (VHH)
VHH: B8 VHH with T28A, Y31D
notes: Humanized VHH; also called B125 VHH-V2
